Data as given in patent publication US20150266968A1 (COMPLIX, published 2015).

Tests used:
[1] = biological target: T1, GST-tagged recombinant human MCL-1 (residues 172 to 327) (human, UniProt Q07820 172-327); experiment: ELISA: Alphabody (500 nM) captured by immobilized anti-V5 antibody, five-fold dilutions of GST-MCL-1, detection with anti-GST-HRP, OD read at 492 nm and 630 nm
T1 construct: Produced in E. coli as an N-terminal GST fusion and purified using the GST-tag; also called recombinant MCL-1; GST-MCL-1; not shown: N-terminal GST tag and any linker or cleavage site between GST and MCL-1

[2] = biological target: T2, GST-tagged recombinant human BCL-XL with a C terminal deletion of 24 amino acids (human, UniProt Q07817 1-209); experiment: ELISA: Alphabody (500 nM) captured by immobilized anti-V5 antibody, five-fold dilutions of GST-BCL-XL, detection with anti-GST-HRP, OD read at 492 nm and 630 nm
T2 construct: domain: BCL-XL with a C terminal deletion of 24 amino acids; Produced in E. coli as an N-terminal GST fusion; also called GST-BCL-XL; not shown: Glutathione S Transferase (GST) tag at the N-terminus
Description: (§1) FIG. 13: Binding of recombinant BCL-2 family proteins to Alphabody AB1_pan_hiKR3-V5. Alphabody (500 nM) was captured by immobilized anti-V5 antibody (5 microg/ml) to a microtiterplate. Binding of five-fold dilutions of Glutathione S transferase (GST)-tagged recombinant BCL-2 family proteins MCL-1, BCL-XL and BCL-2a was detected using a anti-GST antibody conjugated to Horse Radish Peroxidase. Plates were read at 492 nm and 630 nm.
(§2) Maxisorp Nunc plates were coated with 100 microl anti-V5 antibody (5 microg/ml) in carbonate buffer pH 9.6 overnight at 4° C. The next day, plates were washed 3 times with Tris Buffered Saline containing 0.05% Tween 20 (TBST) and blocked with TBS containing 0.1% BSA and 0.5% gelatin for 2 h at 37° C. After washing plates 5 times with TBST, 500 nM AB1_pan_hiKR3-V5 Alphabody was added to the plates for 2 h at RT while shaking. Plates were washed 10 times with TBST and five-fold dilutions of Glutathione S transferase (GST) tagged recombinant BCL-2 family proteins (MCL-1, BCL-XL and BCL-2a) were added and further incubated for 2 h at RT while shaking. Binding of GST-tagged recombinant BCL-2 family proteins was detected using an anti-GST antibody conjugated to Horse Radish Peroxidase. […] Signals indicative for specific binding of AB1_pan_hiKR3-V5 to the particular BCL-2 family recombinant protein were read at 492 nm and 630 nm.

[3] = biological target: T1, GST-tagged recombinant human MCL-1 …; experiment: ELISA: Alphabody (500 nM) captured by immobilized anti-V5 antibody, five-fold dilutions of GST-tagged recombinant protein, detection with anti-GST-HRP, OD read at 492 nm and 630 nm
Description: as §1, §2

[4] = biological target: T2, GST-tagged recombinant human BCL-XL …; experiment: as above
Description: as §1, §2

T1 sequence (Q07820 172-327 limits assumed): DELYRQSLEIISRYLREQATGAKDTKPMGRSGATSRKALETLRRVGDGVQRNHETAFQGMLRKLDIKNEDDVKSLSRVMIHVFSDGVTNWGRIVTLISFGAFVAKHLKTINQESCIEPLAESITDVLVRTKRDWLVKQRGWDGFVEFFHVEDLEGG
T2 sequence (Q07817 1-209, stated change not applied): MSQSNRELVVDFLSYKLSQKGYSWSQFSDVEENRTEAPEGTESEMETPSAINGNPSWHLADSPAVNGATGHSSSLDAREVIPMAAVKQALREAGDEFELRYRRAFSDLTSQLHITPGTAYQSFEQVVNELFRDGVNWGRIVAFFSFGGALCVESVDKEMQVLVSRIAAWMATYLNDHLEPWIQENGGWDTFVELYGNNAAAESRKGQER

Row | Binder | binding result [1] | EC50 (read off the curve) [1] [nM] | EC50 (read off the curve) [2] [nM] | EC50 (read off the curve) [3] [nM] | EC50 (read off the curve) [4] [nM]
1 | Alphabody MB23_hiR-V5 (designed binder, Cationized Alphabody directed against IL-23, with His-tag and V5 tag; Used as control in the BCL-2 family ELISA; also called cationized MB23; control Alphabody MB23-hiR-V5) MSIEQIQKEITTIQEVIAAIQKYIYTMTGGSGGSGGMSIQQIQAAIRRIQRAIRRIQRAIRRMTGSGGGGSGMSIEEIQKQIAAIQEQIVAIYKQIMAMASHHHHHHGKPIPNPLLGLDST | no binding (tested: 200 nM) |  |  |  | 
2 | Alphabody AB1_pan_hiKR3-V5 (designed binder, captured on the plate by anti-V5 antibody in the ELISA) MSIEEIQKQFKRIQKQIKRIAKQIKRMTGGSGGSGGMSIEEIAAQIAAIQLRIIGDQFNIYYMTGSGGGGSGGSIEEIKKSIRAIQKEIKKIQKKIKKMTPHHHHHHHHHHGKPIPNPLLGLDST |  | ~2 | ~5 | ~2 | ~5
3 | Alphabody AB1_A2aF_hiKR3-V5 (designed binder) MSIQQIQKQFKRIQKQIKRIEKQIKRMTGGSGGSGGMSIEEITKQIAAIQLRIVGDQVQIYAMTGGSGGGSGGGSGGGSGGSIEEIKKSIRAIQKEIKKIQKKIKKMTPHHHHHHHHHHGKPIPNPLLGLDST |  | ~1 |  |  | 
